Here are results for 18 molecules from patent US20220363718A1 (Bicycle, published 2022).

In experiment [1] the target is TSLP (as used in the human PBMC assay) (UniProt Q969D9 29-159). As to the kind of experiment: cell-based or functional assay.
Experiment [2] deals with T1, Biotinylated human TSLP (hTSLP(29-159)-Avi) (human, biotinylated (C-terminal Avi-tag)).
T1 construct: also called thymic stromal lymphopoietin
The experiment in a line: SPR, biotinylated hTSLP on streptavidin chip, peptide injected. In general terms: SPR reads the build-up and loss of mass on a sensor chip optically.

In experiment [3] the target is T2, Biotinylated human TSLP (human, biotinylated).
T2 construct: also called hTSLP; thymic stromal lymphopoietin
The experiment in a line: SPR, biotinylated hTSLP on streptavidin chip; Example 153, Ac-(SEQ ID NO: 112).

Experiment [4] addresses T2, Biotinylated human TSLP. As to the kind of experiment: SPR, biotinylated hTSLP on streptavidin chip; Example 160, Ac-(SEQ ID NO: 118).
Experiment [5] concerns the target T2, Biotinylated human TSLP. The experiment in a line: SPR, biotinylated hTSLP on streptavidin chip; Example 154, Ac-(SEQ ID NO: 113).
For experiment [6], the target named is T2, Biotinylated human TSLP. The experiment in a line: SPR, biotinylated hTSLP on streptavidin chip; Example 11, Ac-(SEQ ID NO: 9).
Experiment [7] addresses T2, Biotinylated human TSLP. As to the kind of experiment: SPR, biotinylated hTSLP on streptavidin chip; Example 157, Ac-(SEQ ID NO: 115).
The target of experiment [8] is T2, Biotinylated human TSLP. As to the kind of experiment: SPR, biotinylated hTSLP on streptavidin chip; Example 158, Ac-(SEQ ID NO: 116).
The target in experiment [9] is T2, Biotinylated human TSLP. As to the kind of experiment: SPR, biotinylated hTSLP on streptavidin chip; Example 146, Ac-(SEQ ID NO: 105).
Experiment [10] has as its target T2, Biotinylated human TSLP. The experiment in a line: SPR, biotinylated hTSLP on streptavidin chip; Example 8, Ac-(SEQ ID NO: 6).
Experiment [11] has as its target T2, Biotinylated human TSLP. As to the kind of experiment: SPR, biotinylated hTSLP on streptavidin chip; Example 14, Ac-(SEQ ID NO: 12).
For experiment [12], the target named is T2, Biotinylated human TSLP. As to the kind of experiment: SPR, biotinylated hTSLP on streptavidin chip; Example 148, Ac-(SEQ ID NO: 107).
Experiment [13] deals with T2, Biotinylated human TSLP. The experiment in a line: SPR, biotinylated hTSLP on streptavidin chip; Example 4, Ac-(SEQ ID NO: 4).

*1 amine or outer side, *2 acyl side, *3 side chain or, on linkers, in order; H or OH if unused. Bridges are numbered along the chain shown (N, C = ends). Where no end group is shown, it is not given here. [ ]: non-standard residue; d: D form. The star is where a group is joined. X1 = N3CH2C(O)NH(CH2CH2O)3CH2CH2(CO), [N-]=[N+]=NCC(=O)NCCOCCOCCOCCC(=O)*; N3CH2C(O)NH(CH2CH2O)2CH2C(O) = [N-]=[N+]=NCC(=O)NCCOCCOCC(=O)*; TATA = O=C(CC[*:1])N1CN(C(=O)CC[*:2])CN(C(=O)CC[*:3])C1; Trp(1-Me) = Cn1cc(C[C@H](N)C(=O)O)c2ccccc21; Arg(Me2a) = CN(C)C(=N)NCCC[C@H](N)C(=O)O; Phe(4-F) = N[C@@H](Cc1ccc(F)cc1)C(=O)O; tBuAla = CC(C)(C)C[C@H](N)C(=O)O; NMeA = CN[C@@H](C)C(=O)O

T2 sequence (chain, as listed by the source limits assumed): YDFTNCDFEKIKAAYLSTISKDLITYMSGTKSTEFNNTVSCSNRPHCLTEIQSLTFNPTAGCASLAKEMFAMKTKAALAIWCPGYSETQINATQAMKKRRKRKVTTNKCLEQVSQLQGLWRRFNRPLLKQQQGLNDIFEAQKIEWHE
T1 sequence (chain, as listed by the source limits assumed): as above

B1: Example 250 (peptide)
peptide: X1-C[NMeA][Trp(1-Me)][tBuAla]QDC[Trp(1-Me)][Arg(Me2a)]G[Phe(4-F)]C-NH2
modifications: linker 1-7-12 via TATA; also: trimer: three peptides clicked via N-terminal azido linker to N-but-3-yn-1-yl-N2,N6-dipent-4-ynoyl-L-lysinamide core
notes: Trimer of identical bicyclic peptides on a tri-alkyne lysinamide core (formula with F3, S9)
The term Kd denotes a measure of binding affinity in units of concentration. Low values mean higher affinity, high ones lower affinity. Turning to B1, in experiment [1], the “CCL17 % Inhibition @ 10 µM, 50 pM TSLP” value turned out to be 83% and the “CCL17 % Inhibition @ 10 µM, 400 pM TSLP” value came out at 59%. The dissociation constant Kd in experiment [2] came to 0.027 nM.

B2: Example 153 (peptide)
peptide: CQWLEDCWRGXC
modifications: not fully specified; N-term acetyl; CQWLEDCWRG[PentFPhe]C as printed; 3 Cys on TATA
Regarding B2, the Kd with Biotinylated human TSLP [3] was 2700 nM.

B3: Example 228 (peptide)
peptide: CDWHWEYDCWLSCGAGESS
modifications: linker 1-9-13 via TATA; not fully specified (C-terminus)
In [2], B3 gave a dissociation constant Kd of 2300 nM.

B4: Example 251 (peptide)
peptide: {N3CH2C(O)NH(CH2CH2O)2CH2C(O)}-C[NMeA][Trp(1-Me)][tBuAla]QDC[Trp(1-Me)][Arg(Me2a)]G[Phe(4-F)]C-NH2
modifications: linker 1-7-12 via TATA; also: dimer: peptides clicked via N-terminal azido linker to N2,N6-dipent-4-ynoyl-L-lysine core (source also calls it trimeric)
notes: Claim 16 speaks of a dimeric or trimeric moiety
As to B4, in experiment [1], the “CCL17 % Inhibition @ 10 µM, 50 pM TSLP” value worked out at 87% and the “CCL17 % Inhibition @ 10 µM, 400 pM TSLP” value came to 85%. This molecule registered an equilibrium dissociation constant (Kd) in experiment [2] of 0.14 nM.

B5: Example 232 (peptide)
peptide: ACDELDIPCWIFKTLCA
modifications: linker 2-9-16 via TATA; not fully specified (C-terminus)
For B5, the equilibrium dissociation constant (Kd) in experiment [2] worked out at 8300 nM.

B6: Example 160 (peptide)
peptide: CQWXEDCWRGXC
modifications: not fully specified; N-term acetyl; CQW[4-MenL]EDCWRG[4-FPhe]C as printed; 3 Cys on TATA
In the experiment with Biotinylated human TSLP [4], B6 displayed a Kd of 10000 nM.

B7: Example 230 (peptide)
peptide: ACALDPWVCPQWWDCA
modifications: linker 2-9-15 via TATA; not fully specified (C-terminus)
Molecule B7 yielded a Kd in experiment [2] of 960 nM.

B8: Example 154 (peptide)
peptide: CQWXEDCWRGXC
modifications: not fully specified; N-term acetyl; CQW[LMe]EDCWRG[4-FPhe]C as printed; 3 Cys on TATA
In turn, B8 registered a Kd with Biotinylated human TSLP [5] of 2900 nM.

B9: Example 11 (peptide)
peptide: CQWLEDCWRGXC
modifications: not fully specified; N-term acetyl; CQWLEDCWRG[3,4diClPhe]C as printed; 3 Cys on TATA
The molecule B9 came in with an equilibrium dissociation constant (Kd) with Biotinylated human TSLP [6] of 5.8 nM.

B10: Example 157 (peptide)
peptide: CQWLEDCWRGXC
modifications: not fully specified; N-term acetyl; CQWLEDCWRG[4-PyrA]C as printed; 3 Cys on TATA
Turning to B10, the equilibrium dissociation constant (Kd) with Biotinylated human TSLP [7] was 3900 nM.

B11: Example 158 (peptide)
peptide: CQWLEDCWRGXC
modifications: not fully specified; N-term acetyl; CQWLEDCWRG[3-PyrA]C as printed; 3 Cys on TATA
B11 had a Kd with Biotinylated human TSLP [8] of 5400 nM.

B12: Example 146 (peptide)
peptide: CQWLEDCWRGXC
modifications: N-term acetyl; CQWLEDCWRG[2PyrA]C as printed; 3 Cys on TATA
Molecule B12 showed a dissociation constant (Kd) in the experiment with Biotinylated human TSLP [9] of 910 nM.

B13: Example 8 (peptide)
peptide: CQWLEDCWRGXC
modifications: not fully specified; N-term acetyl; CQWLEDCWRG[4F3ClPhe]C as printed; 3 Cys on TATA
Regarding B13, binding with Biotinylated human TSLP [10] was characterised by a dissociation constant (Kd) of 4 nM.

B14: Example 14 (peptide)
peptide: CQWLEDCWRGXC
modifications: N-term acetyl; CQWLEDCWRG[4-ClPhe]C as printed; 3 Cys on TATA
For the molecule B14, binding with Biotinylated human TSLP [11] was put at a Kd of 6 nM.

B15: Example 148 (peptide)
peptide: CQWLEDCWRGXC
modifications: N-term acetyl; CQWLEDCWRG[BnA]C as printed; 3 Cys on TATA
B15 displayed a Kd with Biotinylated human TSLP [12] of 1100 nM.

B16: Example 229 (peptide)
peptide: ACSLDPWSCHNWWTCA
modifications: linker 2-9-15 via TATA; not fully specified (C-terminus)
In experiment [2], B16 showed a Kd of 9900 nM.

B17: Example 231 (peptide)
peptide: ACQEHDWYCLLYQPECA
modifications: linker 2-9-16 via TATA; not fully specified (C-terminus)
In the case of B17, in [2], binding was put at a Kd of 1800 nM.

B18: Example 4 (peptide)
peptide: CQWXEDCWRGXC
modifications: not fully specified; N-term acetyl; CQW[tBuA]EDCWRG[4-FPhe]C as printed; 3 Cys on TATA
B18 returned a Kd with Biotinylated human TSLP [13] of 2.7 nM.
